The values below come from the supplement of paper PMC10567573.

± gives the standard deviation.

This data set is described as follows: protein stability index of a GFP-peptide fusion (GPS, HEK-293T) (PSI 1-6); higher = more stable. As to conditions: c terminus: a fixed tail appended.
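Also: 24-mer peptide tiles fused after GFP, lentivirally expressed, FACS-sorted into six equal bins by GFP/DsRed ratio, decoded by Illumina sequencing, PSI is the read-weighted mean bin number.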

In the case of IVEKRVLAHLAPLFDNPKLDKELR [INTS3], the protein stability index came to 2.13 ± 0.2 (treatment: DMSO) and 2.13 ± 0.37 (treatment: MLN4924 1 uM, 8 h). Consider PWSPCSARFITDFLDNGYGHCLLD [ADAMTS4], for which the protein stability index stood at 2.05 ± 0.21 (treatment: DMSO) and 2.21 ± 0.41 (treatment: MLN4924 1 uM, 8 h).

In the case of VEEFGVVSNTRLIAAATSVLKTRF [CCNC], the protein stability index (treatment: DMSO) was 2.88 ± 0.61 and the protein stability index (treatment: MLN4924 1 uM, 8 h) came out at 2.26 ± 0.68. For ENPDLQEAYIAKQKRLKSKLLDHD [GDAP1], in that order: 4.53 ± 0.11 and 4.67 ± 0.15. Take PEQLVLTLLEAEPPHVLISRPSAP [ESR2]: the protein stability index by setting is: (treatment: DMSO) 2.89 ± 0.31; (treatment: MLN4924 1 uM, 8 h) 3.1 ± 0.48. KCKQVKEKCKEEFVEEIKKLATQH [ZMYND11]: the protein stability index reads like this: (treatment: DMSO) 4.12 ± 0.15; (treatment: MLN4924 1 uM, 8 h) 4.14 ± 0.23.

Regarding EADPEMIKRAEDYGPVEVISHWHP [CLPTM1], the protein stability index reads like this: (treatment: DMSO) 4.42 ± 0.24; (treatment: MLN4924 1 uM, 8 h) 4.26 ± 0.38. SRETECSRVGKQSFIITLGCNSVL [CARM1]: the protein stability index runs as follows: (treatment: DMSO) 2.3 ± 0.66; (treatment: MLN4924 1 uM, 8 h) 2.09 ± 0.38. For LGPSPQRDPQAVKERALSAPWLSL [ZNF263], in that order: 2.72 ± 0.14 and 2.77 ± 0.29. For FKLKESCVRRRYSDFEWLKNELER [SNX12], in that order: 2.33 ± 0.21 and 2.59 ± 0.26.

As to ARAEAEQMAKKAEAFQLYQEAAQL [FLOT1], the protein stability index is 4.49 ± 0.17 (treatment: DMSO) and 4.52 ± 0.3 (treatment: MLN4924 1 uM, 8 h).

With WGGAPKEGSIWRGAQMEKEWARAL [ZSWIM9], the protein stability index came out at 2.8 ± 0.28 (treatment: DMSO) and 2.75 ± 0.25 (treatment: MLN4924 1 uM, 8 h). For PYQALRLWARGTWTQATGLGCALL [SOAT2], in that order: 2.09 ± 0.46 and 2.05 ± 0.3. Take TGFTVNVAWNGPRMGDADYLAAWH [HDAC6]: the protein stability index reads like this: (treatment: DMSO) 2.43 ± 0.52; (treatment: MLN4924 1 uM, 8 h) 2.18 ± 0.26.

With ILRSQLVTLLVRGVCYSESQSSAS [CLCN6], the protein stability index by setting is: (treatment: DMSO) 2.88 ± 0.38; (treatment: MLN4924 1 uM, 8 h) 2.95 ± 0.39. Sequence VCVEHHTFFRLLLPEAPPKKFLTL [EPB41L3] came in with a protein stability index (treatment: MLN4924 1 uM, 8 h) of 2.85 ± 0.42. Regarding ESEFDIEDEDKSEPEQTGADAAED [RBBP5], the protein stability index was 5.73 ± 0.18 (treatment: DMSO) and 5.826 ± 0.029 (treatment: MLN4924 1 uM, 8 h). The corresponding values for SPDGALLATASYDTRVYIWDPHNG [WSB1] are 2.5 ± 0.41 and 2.51 ± 0.6.

With WAQYRQGEARFLPKDLDPSLCTHL [CHIT1], the protein stability index (treatment: DMSO) worked out at 2.65 ± 0.31 and the protein stability index (treatment: MLN4924 1 uM, 8 h) turned out to be 2.78 ± 0.39. For SKSKEEVSSLISEKTNGATPLLMA [FEM1C], the protein stability index is 4.26 ± 0.42 (treatment: DMSO) and 4.49 ± 0.24 (treatment: MLN4924 1 uM, 8 h). The corresponding values for QRARKEREKEDYLHLKRQPKRRWL [RHOBTB2] are 4.05 ± 0.23 and 4.16 ± 0.23. The corresponding values for QATKASLKERFAFLFNSELLSDVR [BTBD1] are 2.55 ± 0.22 and 2.67 ± 0.34. On to NNTLVALPIVAIENILSFMSYDEI [FBXO28], for which the protein stability index runs as follows: (treatment: DMSO) 3.22 ± 0.33; (treatment: MLN4924 1 uM, 8 h) 3 ± 0.61. For ACMMTITFLPYTFSLMVTFPDVPL [TMEM175], in that order: 3.1 ± 0.09 and 3.26 ± 0.33.

For IAATELEKEESRREAEKQNYLAEH [TNNI2], the protein stability index runs as follows: (treatment: DMSO) 5.3 ± 0.25; (treatment: MLN4924 1 uM, 8 h) 5.37 ± 0.26.

Regarding AAGVAAAFGAPIGGTLFSLEEGSS [CLCN6], the protein stability index (treatment: DMSO) turned out to be 3.94 ± 0.09 and the protein stability index (treatment: MLN4924 1 uM, 8 h) is 3.97 ± 0.17. For AESQGCNHEEDAGVRCNTPAMGLQ [LOXL2], in that order: 5.34 ± 0.27 and 5.29 ± 0.3. Sequence LPPPCAALWCSGHLNGHAMCQTKH [ADAMTS4] registered a protein stability index (treatment: DMSO) of 3.13 ± 0.24 and a protein stability index (treatment: MLN4924 1 uM, 8 h) of 3.17 ± 0.3.

The sequence LKRPVNVPFDIFTEEVKFYQLGEE [KCNA4] displayed a protein stability index (treatment: DMSO) of 3.01 ± 0.27 and a protein stability index (treatment: MLN4924 1 uM, 8 h) of 3.27 ± 0.37.
